Results taken from patent US20240108766A1 (Bayer, published 2024).

Key:
[1] = target: T1, human LRRC15 extracellular domain with C-terminal His tag (human, UniProt Q8TF66 22-538); test: SPR thermodynamics (van't Hoff/Eyring), 10-37°C
T1 construct: Recombinant, made in HEK293; the entry holds the extracellular domain and the His tag; SPR analyte; also called TPP-1545; hLRRC15 CT-His
T1 sequence: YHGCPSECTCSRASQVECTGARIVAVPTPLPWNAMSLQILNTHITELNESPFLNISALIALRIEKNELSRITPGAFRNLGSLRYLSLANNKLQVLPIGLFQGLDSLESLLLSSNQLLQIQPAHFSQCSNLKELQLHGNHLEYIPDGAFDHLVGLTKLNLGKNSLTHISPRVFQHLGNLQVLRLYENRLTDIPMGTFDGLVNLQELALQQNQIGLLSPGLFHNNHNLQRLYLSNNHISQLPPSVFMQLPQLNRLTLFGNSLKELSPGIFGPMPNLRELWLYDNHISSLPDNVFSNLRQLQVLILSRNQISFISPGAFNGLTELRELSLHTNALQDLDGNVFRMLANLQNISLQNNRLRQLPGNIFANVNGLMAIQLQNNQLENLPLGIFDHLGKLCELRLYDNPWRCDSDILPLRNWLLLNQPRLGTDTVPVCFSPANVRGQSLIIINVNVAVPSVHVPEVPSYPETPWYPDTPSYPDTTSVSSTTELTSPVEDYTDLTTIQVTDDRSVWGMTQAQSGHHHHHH
Protocol: Thermodynamics help to explain why an interaction is happening and what the driving forces for the interaction are. To assess the thermodynamic parameters for anti-LRRC15 antibodies binding assays were conducted using surface plasmon resonance (SPR). Binding assays were performed on a Biacore T200 instrument at temperatures of 10° C., 20° C., 25° C. and 37° C. with assay buffer HBS EP+, 1 mg/ml BSA, 300 mM NaCl, 0.05% NaN3. Antibodies were captured via anti-human Fc IgGs covalently amine coupled to a CM5 sensor chip and human LRRC15 was used as an analyte in a concentration series from 1.56-200 nM in multi cycle kinetics mode. Pre-experiments were conducted to have an equal capture level at each temperature. Obtained sensorgrams were fitted to a 1:1 Langmuir binding model to derive kinetic data. Thermodynamic parameters were obtained using the integrated thermodynamics wizard in the Biacore T200 software. Van′t Hoff and Eyring plots were calculated and plotted and thermodynamic parameters were derived.

[2] = target: T1, human LRRC15 extracellular domain with …; test: calculated from SPR kd, 10°C
Protocol: (§1) To assess if anti-LRRC-15 antibodies show a difference in binding at different temperatures, binding assays were conducted using surface plasmon resonance (SPR). Binding assays were performed on a Biacore T200 instrument at temperatures of 10° C., 20° C., 25° C. and 37° C. with assay buffer HBS EP+, 1 mg/ml BSA (bovine serum albumine), 300 mM NaCl, 0.05% NaN₃. Antibodies were captured via anti-human Fc IgGs covalently amine coupled to a CM5 sensor chip and human LRRC15 was used as an analyte in a concentration series from 1.56-200 nM in multi cycle kinetics mode. Pre-experiments were conducted to have an equal capture level at each temperature. Obtained sensorgrams were fitted to a 1:1 Langmuir binding model to derive kinetic data.

[3] = target: T1, human LRRC15 extracellular domain with …; test: SPR (Example 6), overview table, repeats Table 9; head prints [M^-1]
Protocol: To assess the binding kinetics and affinity of anti-LRRC15 antibodies as well as their species cross-reactivity profile, binding assays were conducted using surface plasmon resonance (SPR). Binding assays were performed on a Biacore T200 instrument at 25° C. using assay buffer HBS EP+, 1 mg/ml BSA, 300 mM NaCl, 0.05% NaN3. Antibodies were captured via anti-human Fc IgGs covalently amine coupled to a CM5 sensor chip and human, mouse and cynomolgus LRRC15 were used as analytes in a concentration series from 1.56-200 nM in multi cycle kinetics mode. […] Obtained sensorgrams were fitted to a 1:1 Langmuir binding model to derive kinetic data.

[4] = target: T2, human LRRC15 expressed on cells (human, UniProt Q8TF66 22-581); test: flow cytometry, transfected HEK293, 2.5 µg/ml
T2 construct: whole, on cells; On HEK293 cells transfected with LRRC15/ZsGreen1 (Retrogenix), on HT29 cells transfected with human LRRC15, and endogenous on Saos-2; also called LRRC15/ZsGreen1 transfected HEK293 cells; HT29-LRRC15
T2 sequence (looked up): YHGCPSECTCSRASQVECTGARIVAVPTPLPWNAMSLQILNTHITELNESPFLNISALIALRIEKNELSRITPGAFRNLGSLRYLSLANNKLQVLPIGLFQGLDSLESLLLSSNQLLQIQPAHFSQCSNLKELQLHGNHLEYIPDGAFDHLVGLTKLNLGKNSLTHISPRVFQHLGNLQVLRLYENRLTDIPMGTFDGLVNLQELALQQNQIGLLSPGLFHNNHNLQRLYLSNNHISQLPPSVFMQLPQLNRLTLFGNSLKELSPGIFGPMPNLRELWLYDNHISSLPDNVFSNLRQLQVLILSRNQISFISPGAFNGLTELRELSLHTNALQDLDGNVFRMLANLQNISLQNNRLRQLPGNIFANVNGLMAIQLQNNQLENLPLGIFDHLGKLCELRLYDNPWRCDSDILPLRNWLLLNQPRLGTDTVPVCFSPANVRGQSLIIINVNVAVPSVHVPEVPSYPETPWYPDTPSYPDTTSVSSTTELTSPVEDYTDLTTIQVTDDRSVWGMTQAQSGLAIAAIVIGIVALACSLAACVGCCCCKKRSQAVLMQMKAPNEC

[5] = target: T1, human LRRC15 extracellular domain with …; test: calculated from SPR kd, 37°C
Protocol: as §1

[6] = target: T1, human LRRC15 extracellular domain with …; test: SPR Biacore T200, antibody captured, LRRC15 analyte, 10°C
Protocol: as §1

[7] = target: T1, human LRRC15 extracellular domain with …; test: SPR Biacore T200, antibody captured, LRRC15 analyte, 25°C
Protocol: as §1

[8] = target: T1, human LRRC15 extracellular domain with …; test: calculated from SPR kd, 25°C
Protocol: as §1

[9] = target: T1, human LRRC15 extracellular domain with …; test: SPR Biacore T200, antibody captured, LRRC15 analyte, 20°C
Protocol: as §1

B1: TPP-12942 (antibody, human IgG1, kappa, V domains shown)
VH: EVQLVQSGAEVKKPGASVKVSCKASGYKFSSYWIEWVKQAPGQGLEWIGEILPGSDTTNYNEKFKDRATFTSDTSINTAYMELSRLRSDDTAVYYCARDRGNYRAWFGYWGQGTLVTVSS
VL: DIQMTQSPSSLSASVGDRVTITCRASQDISNYLNWYQQKPGGAVKFLIYYTSRLHSGVPSRFSGSGSGTDYTLTISSLQPEDFATYFCQQGEALPWTFGGGTKVEIKR
notes: Prior art humanized IgG1 kappa antibody, used as comparator; also called huM25; huM25-hIgG1Kappa
[1]
  -TΔS: 6.69 kcal/mol
  ΔG^0: -10.5 kcal/mol
  ΔH^0: -17 kcal/mol
[2]
  Complex Half Life: 0.963 h
[3]
  Kd: 25 nM
[4]
  Median Fluorescence AF647: 746000
[5]
  Complex Half Life: 0.0267 h
[6]
  Kd: 5.2 nM
[7]
  Kd: 21 nM

B2: TPP-17078 (antibody, human IgG1, kappa, V domains shown)
VH: EVQLVQSGAEVKKPGASVKVSCKASGYKFSSYWIEWVKQAPGQGLEWIGEILPGSDTTNYNEKFKDRATFTSDTSINTAYMELSRLRSDDTAVYYCARDRGNYRAWFGYWGQGTLVTVSS
VL: DIQMTQSPSSLSASVGDRVTITCRASQSISSYLNWYQQKPGGAPKFLIYYASSLQSGVPSRFSGSGSGTDYTLTISSLQPEDFATYYCQQGFSLPWTFGGGTKVEIKR
notes: also called 438H-M308-H05-hIgGkappa
[1]
  -TΔS: 10.3 kcal/mol
  ΔG^0: -12 kcal/mol
  ΔH^0: -22.2 kcal/mol
[8]
  Complex Half Life: 2.12 h
[2]
  Complex Half Life: 14.8 h
[9]
  Kd: 0.88 nM
[3]
  Kd: 1.7 nM
[4]
  Median Fluorescence AF647: 777000
[5]
  Complex Half Life: 0.292 h
[6]
  Kd: 0.32 nM
[7]
  Kd: 1.6 nM

B3: TPP-17421 (antibody, human IgG1, kappa, V domains shown)
VH: EVQLVQSGAEVKKPGASVKVSCKASGYKFSSYWIEWVKQAPGQGLEWIGEILPGSDWTNYNEKFKDRATFTSDTSINTAYMELSRLRSDDTAVYYCARDRGNYRAWFQYWGQGTLVTVSS
VL: DIQMTQSPSSLSASVGDRVTITCRASQSISSYLNWYQQKPGGAPKFLIYYASSLQSGVPSRFSGSGSGTDYTLTISSLQPEDFATYYCQQGLELPWTFGGGTKVEIKR
notes: also called 438H-M306-C11-hIgG1Kappa
[1]
  -TΔS: -1.82 kcal/mol
  ΔG^0: -12.2 kcal/mol
  ΔH^0: -10.5 kcal/mol
[8]
  Complex Half Life: 3.63 h
[2]
  Complex Half Life: 9.63 h
[9]
  Kd: 0.82 nM
[3]
  Kd: 0.96 nM
[4]
  Median Fluorescence AF647: 649000
[5]
  Complex Half Life: 1.07 h
[6]
  Kd: 0.46 nM
[7]
  Kd: 0.88 nM

B4: TPP-14389 (antibody, human IgG1, kappa, V domains shown)
VH: EVQLLESGGGLVQPGGSLRLSCAASGFTFSGYMMSWVRQAPGKGLEWVSGIYPSPGYTYYADSVKGRFTISRDNSKNTLYLQMNSLRAEDTAVYYCAREKASDLFGSYSEALDYWGQGTLVTVSS
VL: DIQMTQSPDSLSASVGDRVTITCRASQDVGSWLAWYQQKPGKAPKLLIFAASSLESGIPSRFSGSGSGTDFTLTISSLQPEDFATYYCQQANGFPLTFGGGTKVEIKR
notes: also called 13612-rec02-hIgG1Kappa
[1]
  -TΔS: 19.4 kcal/mol
  ΔG^0: -11.2 kcal/mol
  ΔH^0: -31.1 kcal/mol
[8]
  Complex Half Life: 0.148 h
[2]
  Complex Half Life: 1.6 h
[9]
  Kd: 2 nM
[3]
  Kd: 5.9 nM
[5]
  Complex Half Life: 0.01 h
[6]
  Kd: 0.61 nM
[7]
  Kd: 5.4 nM
